We go through twelve molecules from patent US20110076262A1 (Genentech, published 2011).

For experiment [1], the target named is T1, Human FGF19 (human, UniProt O95750 25-216).
T1 construct: Recombinant soluble protein; also called huFGF19; Fibroblast growth factor 19
Nature of the experiment: SPR (Biacore), 1A6-graft as IgG, soluble human FGF19; reference chimeric 1A6. In general terms: In SPR one partner is held on a chip, and binding of the other changes the refractive index at the surface.

The target of experiment [2] is T1, Human FGF19. Nature of the experiment: SPR (BIAcore 2000), IgG on chip, soluble human FGF19.
In experiment [3] the target is T1, Human FGF19. The description is as above. This is another data set of the same source.
For experiment [4], the target named is T1, Human FGF19. The description is as above. The source holds these as a separate data set.
The target in experiment [5] is T2, Cynomolgus FGF19 (cynomolgus monkey).
T2 construct: also called Cyno FGF19; cynoFGF19
Nature of the experiment: SPR (BIAcore 2000), IgG on chip, soluble cynomolgus FGF19.

The target in experiment [6] is T1, Human FGF19. Nature of the experiment: solid phase receptor binding assay: antibody blocks FGF19 binding to plate-captured FGFR4-Fc. Here is the method:
(§1) Maxisorb 96 well plates were coated overnight at 4° C. with 50 μl of 2 μg/ml anti-human immunoglobulin Fcγ fragment specific (Jackson Immunoresearch) and used to capture 1 μg/ml FGFR-Fc chimeric proteins (R & D Systems). The non-specific binding sites were saturated with PBS/3% BSA for 1 hour and FGF19 (0.25 μg/ml) was incubated for 2 h in PBS/0.3% BSA in the presence of oligosaccharides (0.5 μg/ml; Neoparin Inc.) and the indicated anti-FGF19 antibody (0-10 μg/ml). FGF19 binding was detected using a biotinylated FGF19 specific polyclonal antibody (0.5 μg/ml; BAF969; R & D Systems) followed by streptavidin-HRP and TMB colorimetric substrate.
(§2) Humanized anti-FGF19 antibody 1A6.v1 was characterized as follows: [0531] (1) In an assay to test ability of 1A6.v1 to block binding of FGF19 to its receptor, FGFR4, 1A6.v1 was able to block FGF19 binding to its receptor at least as well as one comparator antibody—namely a chimeric antibody (which comprised the variable regions from the murine parent 1A6 antibody (variable domains depicted in FIG. 8) fused to a human Fc region). […] [0532] (2) 1A6.v1 was also tested for cross-species binding among human and primate (Cynomolgus macaque monkey). […] [0533] (3) 1A6.v1 was tested for in vitro efficacy using a colon tumor cell line (HCT116 cells). […] [0534] […]

Experiment [7] concerns the target T1, Human FGF19. Nature of the experiment: Solid phase receptor binding assay: FGFR4-Fc captured on an anti-human Fc plate, FGF19 (0.25 µg/ml) incubated with titrated anti-FGF19 antibody, bound FGF19 detected with biotinylated polyclonal anti-FGF19 / streptavidin-HRP (OD 450 nm); blocked ligand-receptor pair FGF19/FGFR4. Here is the method: as §1, §2

Numbering of substitutions follows the chain as printed. Numbers in names are those of the source. Read-outs that look alike come from different tables or passages of the source.

T1 sequence (O95750 25-216 limits assumed): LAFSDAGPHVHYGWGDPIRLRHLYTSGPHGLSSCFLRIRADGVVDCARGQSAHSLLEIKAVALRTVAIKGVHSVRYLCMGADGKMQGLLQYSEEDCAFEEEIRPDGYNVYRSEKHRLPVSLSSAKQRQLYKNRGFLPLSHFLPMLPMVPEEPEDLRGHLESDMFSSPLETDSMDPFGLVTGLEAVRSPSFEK

B1: 1A6-graft (direct HVR-graft of 1A6), expressed as IgG (antibody, V domains shown)
VH: EVQLVESGGGLVQPGGSLRLSCAASGFSLTTYGVHWVRQAPGKGLEWVGVIWPGGGTDYNAAFISRFTISRDNSKNTLYLQMNSLRAEDTAVYYCVRKEYANLYAMDYWGQGTLVTVSS
VL: DIQMTQSPSSLSASVGDRVTITCKASQDINSFLSWYQQKPGKAPKLLIYRANRLVDGVPSRFSGSGSGTDFTLTISSLQPEDFATYYCLQYDEFPLTFGQGTKVEIKR
notes: Tested as IgG produced in 293 cells; also called 1A6 grafted antibody; 1A6 HVR graft
Consider B1, for which the “fold reduction of binding affinity relative to chimeric 1A6” value in experiment [1] was greater than 50 fold. In addition, in experiment [2], the “KD (fold weaker), against chimeric 1A6” value came out at 58.1 fold; the “Ka (fold slower), against chimeric 1A6” value amounted to 24.8 fold; the “Kd (fold faster), against chimeric 1A6” value worked out at 2.3 fold. For the same molecule, in experiment [3], the Kd (commonly the concentration at which binding is half-saturated) turned out to be 2090 pM; the koff (usually a measure of how fast the partners let go of each other) was 0.000124 s⁻¹; the kon (as a rule, the rate constant with which the complex forms) turned out to be 59300 M⁻¹ s⁻¹.

B2: hu1A6.S34T (HVR-L1) (antibody, V domains shown)
VH: B1 VH
VL: B1 VL with S34T
Regarding B2, in experiment [2], the “KD (fold weaker), against chimeric 1A6” value worked out at 14 fold; the “Ka (fold slower), against chimeric 1A6” value was determined as 12 fold; the “Kd (fold faster), against chimeric 1A6” value came to 1.2 fold.

B3: hu1A6.A100bR (HVR-H3) (antibody, name in Kabat numbering, V domains shown)
VH: B1 VH with A105R
VL: B1 VL
As for B3, in experiment [2], the “KD (fold weaker), against chimeric 1A6” value turned out to be 2.3 fold; the “Ka (fold slower), against chimeric 1A6” value was 2.6 fold; the “Kd (fold faster), against chimeric 1A6” value came out at 0.9 fold.

B4: hu1A6.V50L (HVR-H2) (antibody, name in Kabat numbering, V domains shown)
VH: B1 VH with V50L
VL: B1 VL
As for B4, in experiment [2], the “KD (fold weaker), against chimeric 1A6” value came out at 5.7 fold; the “Ka (fold slower), against chimeric 1A6” value worked out at 6.3 fold; the “Kd (fold faster), against chimeric 1A6” value is 0.9 fold.

B5: hu1A6.V34A (HVR-H1) (antibody, name in Kabat numbering, V domains shown)
VH: B1 VH with V34A
VL: B1 VL
Regarding B5, in experiment [2], the “KD (fold weaker), against chimeric 1A6” value is 10.5 fold; the “Ka (fold slower), against chimeric 1A6” value worked out at 12.5 fold; the “Kd (fold faster), against chimeric 1A6” value stood at 0.9 fold.

B6: hu1A6.S34A/D56S (HVR-L1/L2) (antibody, V domains shown)
VH: B1 VH
VL: B1 VL with S34A, D56S
notes: Humanized 1A6 variant as IgG
In experiment [4], B6 gave a Kd of 118 pM, a koff of 4.6e-05 s⁻¹ and a kon of 390000 M⁻¹ s⁻¹. Further, in experiment [5], the affinity, expressed as Kd, was 481 pM; the koff was found to be 7.7e-05 s⁻¹; the kon turned out to be 160000 M⁻¹ s⁻¹.

B7: hu1A6.H35Q (HVR-H1) (antibody, name in Kabat numbering, V domains shown)
VH: B1 VH with H35Q
VL: B1 VL
In the case of B7, in experiment [2], the “KD (fold weaker), against chimeric 1A6” value was 6.6 fold; the “Ka (fold slower), against chimeric 1A6” value is 5 fold; the “Kd (fold faster), against chimeric 1A6” value is 1.3 fold.

B8: hu1A6.S34G/D56S (HVR-L1/L2) (antibody, V domains shown)
VH: B1 VH
VL: B1 VL with S34G, D56S
notes: Humanized 1A6 variant as IgG
In experiment [4], B8 returned a Kd of 114 pM, an off-rate constant (koff) of 1.6e-05 s⁻¹ and an on-rate (kon) of 140000 M⁻¹ s⁻¹. Besides, in experiment [5], the Kd turned out to be 906 pM, the koff came out at 4.8e-05 s⁻¹ and the association rate constant (kon) stood at 53000 M⁻¹ s⁻¹.

B9: hu1A6.Q90S (HVR-L3) (antibody, V domains shown)
VH: B1 VH
VL: B1 VL with Q90S
As for B9, in experiment [2], the “KD (fold weaker), against chimeric 1A6” value came to 16 fold; the “Ka (fold slower), against chimeric 1A6” value is 10.4 fold; the “Kd (fold faster), against chimeric 1A6” value was determined as 1.5 fold.

B10: hu1A6.A100bP/M100kS (HVR-H3) (antibody, name in Kabat numbering, V domains shown)
VH: B1 VH with A105P, M106S
VL: B1 VL
notes: also called A100bP/M100cS
For the molecule B10, in experiment [2], the “KD (fold weaker), against chimeric 1A6” value is 0.9 fold; the “Ka (fold slower), against chimeric 1A6” value stood at 1.7 fold; the “Kd (fold faster), against chimeric 1A6” value was determined as 0.5 fold.

B11: hu1A6.S34A (HVR-L1) (antibody, V domains shown)
VH: B1 VH
VL: B1 VL with S34A
With B11, in experiment [2], the “KD (fold weaker), against chimeric 1A6” value amounted to 9.1 fold; the “Ka (fold slower), against chimeric 1A6” value was found to be 7.7 fold; the “Kd (fold faster), against chimeric 1A6” value is 1.2 fold.

B12: chimeric anti-FGF19 antibody 1A6 (antibody, V domains shown)
VH: QVQLKQSGPGLVQPSQSLSITCTVSGFSLTTYGVHWVRQSPGKGLEWLGVIWPGGGTDYNAAFISRLSITKDNSKSQVFFKMNSLLANDTAIYFCVRKEYANLYAMDYWGQGTLLTVSA
VL: DIKMTQSPSSMYASLGERVTIPCKASQDINSFLSWFQQKPGKSPKTLIYRANRLVDGVPSRFSGSGSGQDYSLTISSLEYEDMGIYYCLQYDEFPLTFGAGTKVEIKR
notes: also called chimeric 1A6; ch1A6
Turning to B12, in experiment [4], the Kd was 32 pM, the koff was determined as 5.4e-05 s⁻¹ and the kon is 1.7e+06 M⁻¹ s⁻¹. In experiment [2], the “KD (fold weaker), against chimeric 1A6” value is 1 fold; the “Ka (fold slower), against chimeric 1A6” value was 1 fold; the “Kd (fold faster), against chimeric 1A6” value was 1 fold. In experiment [3], the Kd was found to be 36 pM, the koff was determined as 5.3e-05 s⁻¹ and the kon turned out to be 1.47e+06 M⁻¹ s⁻¹. Moreover, the IC50 (in general, the concentration needed to halve the response being measured) in experiment [6] turned out to be 4500 pM. In experiment [5], this molecule came in with a Kd of 87 pM, a koff of 6.6e-05 s⁻¹ and a kon of 760000 M⁻¹ s⁻¹. Also, the IC50 in experiment [7] came out at 0.675 µg/mL.
